Assay results as given in patent US20080125498A1, “TREATMENT OF NEURODEGENERATIVE DISEASES AND CONDITIONS USING PAR1 ANTAGONISTS” (priority 2001, published 2008).

Experiments:
Test in all cases: cell-based or functional assay
[1] = target: recombinant NR1 subunit in NR1/NR2A and NR1/NR2B NMDA receptors expressed in Xenopus oocytes
[2] = target: protease-activated receptor 1 (PAR1), rat, endogenous in hippocampal neurons (rat) (UniProt P26824)
[3] = target: alpha-thrombin

Sequence of protease-activated receptor 1 (PAR1), rat, endogenous in hippocampal neurons (rat) (P26824 46-432): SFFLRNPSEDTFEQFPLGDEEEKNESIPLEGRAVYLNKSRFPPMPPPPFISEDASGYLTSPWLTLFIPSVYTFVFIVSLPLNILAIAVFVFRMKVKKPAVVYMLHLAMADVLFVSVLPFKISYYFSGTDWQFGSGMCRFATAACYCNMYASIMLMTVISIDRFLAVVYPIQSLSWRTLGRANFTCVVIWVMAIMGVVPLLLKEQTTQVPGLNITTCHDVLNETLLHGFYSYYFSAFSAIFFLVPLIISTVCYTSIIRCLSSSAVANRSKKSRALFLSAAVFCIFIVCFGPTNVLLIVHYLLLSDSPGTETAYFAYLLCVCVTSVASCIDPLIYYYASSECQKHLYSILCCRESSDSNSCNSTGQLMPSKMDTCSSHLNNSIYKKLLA

| Substance | NMDA receptor current response amplitude in oocytes after 300-1000 nM thrombin for 60 minutes [1] [%] | average peak potentiation of NMDA responses in CA1 pyramidal cells at -40 mV in 1.4 mM Mg2+ [2] [fold] | average peak potentiation of NMDA responses in CA1 pyramidal cells at -70 mV in 1.4 mM Mg2+ [2] [fold] | peak potentiation of NMDA responses at -70 mV in CA1 pyramidal neurons [2] [fold] | potentiation by thrombin of NMDA responses in the presence of hirudin [3] [fold] |
| --- | --- | --- | --- | --- | --- |
| alpha-thrombin (enzyme) | 42 | 1.48 | 2.1 | 2.07 |  |
| hirudin |  |  |  |  | 0.96 |
